Bounds are passed on as bounds.

These results are taken from paper PMC11162469, “Discovery of RXFP2 genetic association in resistant hypertensive men and RXFP2 antagonists for the treatment of resistant hypertension” (Scientific Reports, 2024).

One data set has as its target T1, human LDLa-linker (Homo sapiens, UniProt Q8WXD0).
T1 construct: human LDLa linker [huRXFP2-LDLa-linker(38-105)-ratFc-8XHIS]; enterokinase cleavage site (C); rat Fc (C, cleaved yes); 8xHis (C, cleaved yes); made in house; host or cells: Expi293
Briefly: Biacore S200 binding to human LDLa-linker protein. How it is done:
Goat anti Rat Fc gamma fragment specific (Jackson Immunoresearch, 112-005-071) was immobilized at 30 µg/mL to a Series S CM5 chip (Cytiva Life Sciences). In three separate runs, twenty different purified recombinant rat anti RXFP2 antibodies were then captured to the CM5 chip at a concentration of 5 µg/mL. The antibody panel was captured; rat LDLa-linker or human LDLa-linker protein was flowed as analyte at the following concentrations: 20 nM, 10 nM, 5 nM, 2.5 nM, […], and 0 nM. Antibody kinetics were evaluated using a 1:1 fit model (Biacore S200).
On the technique in general: In SPR one partner is held on a chip, and binding of the other changes the refractive index at the surface.

Data set [1] addresses T2, rat RXFP2 (Rattus norvegicus, UniProt F7EMH8). Briefly: Cortisol secretion (ELISA) in H295R stably expressing rat RXFP2. It is filed as cell-based. Details: expressed in transfected cells. The conditions noted are these: H295R-rRXFP2, 3.5 nM INSL3, 48 h, read-out: IC50 on INSL3-induced cortisol release. As to the method: RXFP2 antagonists were added to H295R-rRXFP2 before addition of INSL3 EC80 (3.5 nM) for 48 h, whereupon the cells and supernatants were collected. CYP11B1 and CYP11B2 mRNA were determined by qPCR and the RXFP2 blocker potencies were calculated (Fig. 5a). Fifteen antibodies have IC50s < 50 nM, and three of the top antibodies (1F2, 4G6, and 2D4) were selected for evaluation in steroid hormone secretion assays by ELISA.
The day after seeding, H295R cells were treated and incubated for 48 h before supernatants and cell lysates were collected. Treatments included INSL3, IgG, 1F2, and 4G6 at 0.035 pM–3.5 µM, 2D4 at 0.01 nM–1 uM, or phosphate buffered saline control. In RXFP2 antagonist assays, 3.5 nM INSL3 was used as the stimulus. Cortisol present in the adrenal cell supernatant at 48 h post treatment was detected by ELISA (R&D KGE008B). Sample dilution was optimized at 1/90 using a standard curve. Aldosterone was below the limit of detection by ELISA (R&D KGE016) and required liquid–liquid extraction (LLE) twice using methyl tetra butyl ether. Post extraction samples were dried (SPE Nitrogen dryer) and reconstituted for ELISA analysis. All samples were run in duplicates.

The nature of data set [2]: Pharmacokinetic study of RXFP2 mAbs in rat. It is filed as in vivo, Wistar Han rats.
The target in data set [3] is T2, rat RXFP2. Description: INSL3-stimulated CYP11B1 mRNA expression in H295R stably expressing rat RXFP2. Type of data set: cell-based. Details: expressed in transfected cells. To be noted: INSL3 EC80 (3.5 nM), 48 h, qPCR; N = 2. A digest of the protocol: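 H295R cells stably expressing rat RXFP2 pretreated with antagonist, then stimulated 48 h with INSL3 at EC80 (3.5 nM). CYP11B1 and CYP11B2 mRNA quantified by qPCR as fold change. IC50 derived from fold change versus inhibitor concentration (nM).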
(In qPCR the cycle at which signal appears reflects the starting amount.)

Data set [4] deals with T3, human LDLa peptide (UnitProt Q8WXD0 43-80) (Homo sapiens, UniProt Q8WXD0).
T3 construct: human LDLa peptide (Q8WXD0 43-80)
Description: ELISA binding to linker-less human LDLa peptide. How it is done:
The human/rat RXFP2 cross reactive antibodies belong to two epitope bins and were further evaluated for binding to the linker-less human LDLa peptide (UnitProt Q8WXD0 43-80) by ELISA. […] The different domain requirements for binding are consistent with results from the binning experiment showing 4F6 and 4G6 are in a separate bin from 4B1.
Rat LDLa-linker_ratFc, human LDLa-linker_ratFc, or ratFc, or human LDLa peptide (Q8WXD0 43-80) was diluted to 1 µg/mL in 1X PBS and immobilized in separate 96-well ELISA plates (Nunc Maxisorp), 50 µL/well. The plates were then incubated overnight at 4 °C. The following day the plates were washed three times with ELISA wash buffer (PBS + 0.05% Tween-20) and then blocked with ELISA blocking buffer (PBS + 0.05% Tween-20 + 1% BSA), 200 µL/well, and incubated 1 h at room temperature on a shaker. Plates were again washed three times followed by the addition of the primary antibodies. Hybridoma supernatant was added neat, 50 µL/well; mouse serum was added 1:100 and then serially diluted 1:2 for 8 points, 50 µL/well. Purified antibodies were added 5 µg/mL in the first well and serially diluted down the plate 1:2 for 8 points, 50 µL/well. Primary antibody was incubated for 1 h at room temperature on a shaker. […] Stopping solution (2N Sulfuric acid) was added to the plates 50 µL/well, and then read on a plate reader (SpectraMax Molecular Devices) at 450 nm.
Background: In an ELISA, binding on a coated surface is turned into a signal by an enzyme label.

[5] abbreviates: male Wistar Han rats, 1 mg/kg s.c., n = 3, mean ± SD.

T2 sequence (F7EMH8 20-737): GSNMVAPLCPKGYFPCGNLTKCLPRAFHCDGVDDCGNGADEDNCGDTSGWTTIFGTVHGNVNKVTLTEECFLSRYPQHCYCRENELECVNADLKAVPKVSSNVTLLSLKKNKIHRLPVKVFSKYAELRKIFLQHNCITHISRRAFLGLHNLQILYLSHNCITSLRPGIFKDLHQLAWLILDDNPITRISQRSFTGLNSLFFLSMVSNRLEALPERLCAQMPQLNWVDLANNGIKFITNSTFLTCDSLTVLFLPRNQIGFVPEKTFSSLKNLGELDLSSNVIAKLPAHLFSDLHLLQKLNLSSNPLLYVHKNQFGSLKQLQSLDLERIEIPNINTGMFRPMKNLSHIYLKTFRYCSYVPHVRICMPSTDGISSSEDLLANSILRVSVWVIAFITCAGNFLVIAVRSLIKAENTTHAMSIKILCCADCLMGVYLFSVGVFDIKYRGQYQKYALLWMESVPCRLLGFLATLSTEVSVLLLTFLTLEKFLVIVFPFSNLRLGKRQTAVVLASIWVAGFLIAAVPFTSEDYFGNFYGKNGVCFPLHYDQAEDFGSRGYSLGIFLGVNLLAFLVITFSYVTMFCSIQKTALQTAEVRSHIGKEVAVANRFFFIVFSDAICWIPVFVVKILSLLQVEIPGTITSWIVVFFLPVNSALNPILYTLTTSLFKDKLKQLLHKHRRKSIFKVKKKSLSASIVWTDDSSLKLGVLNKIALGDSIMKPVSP
T3 sequence (Q8WXD0 43-80 limits assumed): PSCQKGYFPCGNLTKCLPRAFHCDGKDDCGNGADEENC
T1 sequence (Q8WXD0 38-105): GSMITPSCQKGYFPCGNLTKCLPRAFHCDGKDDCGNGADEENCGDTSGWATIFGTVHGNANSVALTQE

B1: 4G6: Human/rat cross-reactive RXFP2 monoclonal antibody, rat IgG2b backbone; binds the LDLa domain (antibody, V domains shown)
VH: EVQLQQSGPELVKPGASVKLSCKASGYTFTSYVMHWVKQKPEQGLEWIGYKNPSNDGIKYNEKFKGKATLTSDKSSNIAYMELFSLTSEDSAVYYCARSDFGSVWAMDYWGQGTSVTVSS
VL: SIVMTQTPKFLLVSAGDRVTITCKASQSVNDDIVWYQQKPGQSPKLLIYYASNRYTGVPDRFTGSGYGTDFTFTISTVQAGDLAVYFCQQDYSSPFTFGSGTKLEIK
Broadly, the IC50 is the midpoint of a concentration-inhibition curve. One may read the Cmax as the maximum level reached in the sampled fluid or tissue. One may read the Tmax as the time from dosing to the highest level. In the case of B1, in the data set with human LDLa-linker, the “cross reactivity to the human LDLa-linker” value is on record as “cross reactivity”. Besides, the IC50 with rat RXFP2 [1] was 0.26 nM. Moreover, the “half-life, extrapolated values” in data set [2] (Wistar Han rats, 1 mg/kg sc., over 28 days) is ≥ 11 days. In data set [2] (from trough concentration, dose-linearity assumed), the “estimated dose to achieve tenfold higher IC50 HEK-rRXFP2 cAMP activity for approximately 28 days in rat” value is listed as “approximately 30 mg/kg”. Also, in data set [2] (setting [5]), the AUClast was found to be 1350 ± 125 µg·h/mL, the peak concentration (Cmax) was found to be 4150 ± 1200 ng/mL and the time to peak (Tmax) stood at 224 ± 97 h. Besides, the midpoint of inhibition in the data set with rat RXFP2 [3], the IC50, lay at 0.33 nM. The “binding to linker-less human LDLa peptide” value in data set [4] was “bind”.
